Experimental findings from patent US20230357342A1 (published 2023) are described below.

One experiment has as its target T1, Fc fused human IL-18Rα (human, UniProt Q13478 19-329).
T1 construct: captured by anti-human IgG on a CM5 chip; also called IL-18Rα monomer; human IL-18 receptor alpha (CD218a); not shown: Fc portion
T1 sequence (looked up): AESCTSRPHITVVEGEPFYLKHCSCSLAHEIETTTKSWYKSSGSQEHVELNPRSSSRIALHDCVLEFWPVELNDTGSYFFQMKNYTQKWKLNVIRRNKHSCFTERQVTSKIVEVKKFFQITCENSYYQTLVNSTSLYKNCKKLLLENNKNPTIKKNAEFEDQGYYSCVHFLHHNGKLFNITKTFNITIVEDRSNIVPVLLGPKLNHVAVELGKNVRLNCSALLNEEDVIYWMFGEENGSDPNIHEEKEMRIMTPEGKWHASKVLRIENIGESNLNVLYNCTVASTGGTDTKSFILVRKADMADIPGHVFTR
As to the kind of experiment: SPR, Fc-IL-18Rα captured via anti-human IgG, IL-18 as analyte, 1:1 model. As for the experimental part: (§1) The interaction of the wild type and of modified IL-18 polypeptides with human IL-18 receptor subunits are measured with Surface Plasmon Resonance (SPR) technology. Anti-human IgG antibodies are bound by amine coupling onto a CM5 chip to capture 6 μg/mL of Fc fused human IL-18Rα, 6 μg/mL of Fc fused human IL-18Rβ, or 2 μg/mL of Fc fused human IL-18BP isoform a (IL-18BPa) for 30 min before capture. In other settings, 6 μg/mL of alpha and beta IL-18 receptors are mixed and pre-incubated for 30 min before capture of the alpha/beta heterodimer IL-18 receptor.
(§2) The kinetic binding of the IL-18 analytes are measured with a Biacore 8K instrument in two fold serial dilutions starting at 1 μM down to 0.98 nM. Regeneration of the surface back to amine coupled anti IgG antibody is done after every concentration of analyte. To measure the protein association to the receptors, the samples are injected with a flow rate of 50 μL/min for 60 s, followed by 300 s buffer only to detect the dissociation. The used running buffer is 1×PBS with 0.05% Tween20. The relative response units (RU, Y-axis) are plotted against time (s, X-axis) and analyzed in a kinetic 1:1 binding model for the monomer receptor binding and for the binding to the IL-18BP. A kinetic heterogenous ligand fit model is applied for the alpha/beta heterodimer binding.
(In general: In SPR one partner is held on a chip, and binding of the other changes the refractive index at the surface.)

For experiment [1], the target named is T2, IL-18Rα/β heterodimer (Fc fused human IL-18Rα mixed with Fc fused human IL-18Rβ) (human, UniProt Q13478 19-329; O95256 20-356).
T2 construct: 6 µg/mL of alpha and beta receptors were mixed and pre-incubated 30 min before capture on anti-human IgG; also called alpha/beta heterodimer IL-18 receptor; heterodimeric human IL-18 receptor alpha (CD218a) and IL-18R accessory protein (IL-18RAP/CDw218b); not shown: Fc portion
T2 sequence (looked up) 1: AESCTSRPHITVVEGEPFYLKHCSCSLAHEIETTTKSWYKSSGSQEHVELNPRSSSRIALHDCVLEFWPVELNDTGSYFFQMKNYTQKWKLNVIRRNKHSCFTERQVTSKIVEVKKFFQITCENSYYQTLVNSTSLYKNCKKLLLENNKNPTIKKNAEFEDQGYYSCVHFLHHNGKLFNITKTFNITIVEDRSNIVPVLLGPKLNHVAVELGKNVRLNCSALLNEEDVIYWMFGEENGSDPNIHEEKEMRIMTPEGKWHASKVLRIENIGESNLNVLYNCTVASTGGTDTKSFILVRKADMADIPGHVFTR
T2 sequence (looked up) 2: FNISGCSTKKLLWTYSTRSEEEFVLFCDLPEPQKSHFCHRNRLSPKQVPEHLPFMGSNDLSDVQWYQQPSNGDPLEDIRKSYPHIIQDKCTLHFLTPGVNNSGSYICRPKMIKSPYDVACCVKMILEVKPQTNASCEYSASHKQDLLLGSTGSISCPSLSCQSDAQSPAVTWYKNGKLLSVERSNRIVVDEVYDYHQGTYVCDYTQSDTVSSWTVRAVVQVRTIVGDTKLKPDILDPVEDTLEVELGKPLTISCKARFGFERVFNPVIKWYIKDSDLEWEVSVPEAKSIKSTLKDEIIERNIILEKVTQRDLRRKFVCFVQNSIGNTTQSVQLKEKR
Nature of the experiment: SPR, Fc-IL-18Rα and Fc-IL-18Rβ pre-mixed and captured, IL-18 as analyte, heterogeneous ligand model. As for the experimental part: as §1, §2

Experiment [2] addresses T3, IL-18 receptor on HEK-Blue IL18R reporter cells (UniProt Q13478 19-541; O95256 20-599, limits assumed).
T3 sequence (looked up) 1: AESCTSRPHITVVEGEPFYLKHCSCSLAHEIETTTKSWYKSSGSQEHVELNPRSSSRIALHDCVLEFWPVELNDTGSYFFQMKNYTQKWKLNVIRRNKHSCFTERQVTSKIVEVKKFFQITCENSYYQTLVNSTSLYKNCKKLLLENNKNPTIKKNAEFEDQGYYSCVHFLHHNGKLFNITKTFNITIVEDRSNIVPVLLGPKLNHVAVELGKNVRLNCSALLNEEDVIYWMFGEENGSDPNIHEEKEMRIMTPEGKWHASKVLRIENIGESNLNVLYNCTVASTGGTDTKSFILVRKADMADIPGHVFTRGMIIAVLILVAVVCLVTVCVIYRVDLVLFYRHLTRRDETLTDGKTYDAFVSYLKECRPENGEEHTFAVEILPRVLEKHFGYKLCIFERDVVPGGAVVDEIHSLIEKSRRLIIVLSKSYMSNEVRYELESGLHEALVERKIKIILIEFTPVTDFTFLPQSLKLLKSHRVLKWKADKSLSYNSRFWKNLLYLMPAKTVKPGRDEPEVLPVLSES
T3 sequence (looked up) 2: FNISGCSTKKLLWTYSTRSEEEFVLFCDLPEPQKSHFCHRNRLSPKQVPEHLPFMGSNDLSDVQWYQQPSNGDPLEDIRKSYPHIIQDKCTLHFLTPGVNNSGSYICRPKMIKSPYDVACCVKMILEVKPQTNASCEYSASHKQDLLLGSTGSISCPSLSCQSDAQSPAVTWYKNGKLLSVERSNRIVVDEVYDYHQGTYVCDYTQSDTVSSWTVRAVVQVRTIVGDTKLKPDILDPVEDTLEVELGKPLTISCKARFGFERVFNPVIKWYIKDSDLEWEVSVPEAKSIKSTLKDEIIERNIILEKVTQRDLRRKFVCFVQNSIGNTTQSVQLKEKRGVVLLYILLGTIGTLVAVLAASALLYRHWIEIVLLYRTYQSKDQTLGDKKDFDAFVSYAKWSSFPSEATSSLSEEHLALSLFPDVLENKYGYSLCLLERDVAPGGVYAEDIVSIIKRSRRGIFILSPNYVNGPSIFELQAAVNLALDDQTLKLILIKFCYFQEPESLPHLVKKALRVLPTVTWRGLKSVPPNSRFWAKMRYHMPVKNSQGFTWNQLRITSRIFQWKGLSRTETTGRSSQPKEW
As to the kind of experiment: cell-based or functional assay.

B1: modified IL-18 polypeptide SEQ ID NO: 57 (E6K, C38S, K53A) (ligand)
chain: YFGKLKSKLSVIRNLNDQVLFIDQGNRPLFEDMTDSDSRDNAPRTIFIISMYADSQPRGMAVTISVKCEKISTLSCENKIISFKEMNPPDNIKDTKSDIIFFQRSVPGHDNKMQFESSSYEGYFLACEKERDLFKLILKKEDELGDRSIMFTVQNED
With B1, in the experiment with Fc fused human IL-18Rα, the Kd stood at 72.4 nM, the koff worked out at 0.0151 s⁻¹ and the association rate constant (kon) is 208000 M⁻¹ s⁻¹. Besides, in experiment [1], the equilibrium dissociation constant (Kd) is 2.92 nM, the koff amounted to 0.0008 s⁻¹ and the on-rate constant (kon) came out at 279000 M⁻¹ s⁻¹. The “EC50, HEK-Blue IL18R reporter (SEAP)” value in experiment [2] stood at 0.53 nM.

B2: modified IL-18 polypeptide SEQ ID NO: 243 (Y1M, E6K, V11I, C38A, K53A, T63A, C76A, C127A) (ligand)
chain: MFGKLKSKLSIIRNLNDQVLFIDQGNRPLFEDMTDSDARDNAPRTIFIISMYADSQPRGMAVAISVKCEKISTLSAENKIISFKEMNPPDNIKDTKSDIIFFQRSVPGHDNKMQFESSSYEGYFLAAEKERDLFKLILKKEDELGDRSIMFTVQNED
Consider B2, for which the “EC50, HEK-Blue IL18R reporter (SEAP)” value in experiment [2] is 0.02 nM.

B3: modified IL-18 polypeptide SEQ ID NO: 242 (N-terminal G, E6K, V11I, C38A, K53A, T63A, C76A, C127A) (ligand)
chain: GYFGKLKSKLSIIRNLNDQVLFIDQGNRPLFEDMTDSDARDNAPRTIFIISMYADSQPRGMAVAISVKCEKISTLSAENKIISFKEMNPPDNIKDTKSDIIFFQRSVPGHDNKMQFESSSYEGYFLAAEKERDLFKLILKKEDELGDRSIMFTVQNED
Regarding B3, the “EC50, HEK-Blue IL18R reporter (SEAP)” value in experiment [2] was 1.68 nM.

B4: modified IL-18 polypeptide SEQ ID NO: 244 (N-terminal G, E6K, V11I, C38A, M51G, K53A, T63A, C76A, C127A) (ligand)
chain: GYFGKLKSKLSIIRNLNDQVLFIDQGNRPLFEDMTDSDARDNAPRTIFIISGYADSQPRGMAVAISVKCEKISTLSAENKIISFKEMNPPDNIKDTKSDIIFFQRSVPGHDNKMQFESSSYEGYFLAAEKERDLFKLILKKEDELGDRSIMFTVQNED
B4: the “EC50, HEK-Blue IL18R reporter (SEAP)” value in experiment [2] was found to be 14 nM.

As usually defined, the Kd is the free concentration of one partner at which half of the binding sites on the other are occupied at equilibrium, for simple one-to-one binding. Low values mean tighter binding, high ones weaker binding. The koff is a measure of how fast the partners let go of each other. Higher therefore signals a short-lived complex. The term kon denotes the second-order rate constant of association. A lower kon goes with slower complex formation.
